For assay [1], the target named is thyroid stimulating hormone receptor (TSHR), full length, coated on tubes (human) (UniProt P16473). Put plainly: inhibition of 125I-TSH binding, TSHR coated tubes; antibody 100 µg/mL in HBD serum pool.
The target in assay [2] is human thyroid stimulating hormone receptor (TSHR), full length (human) (UniProt P16473). Put plainly: 125I-K1-70 Fab (competitor) binding to TSHR coated tubes; test sample 10 µg/mL in HBD serum.
The target is the same in assay [3]. Briefly: 125I-K1-70 Fab (competitor) binding to TSHR coated tubes; test sample 0.1 µg/mL in assay buffer.
The target in assay [4] is full length wild type human TSHR (human) (UniProt P16473). Put plainly: TSHR260-AP bridge ELISA, wild type TSHR on wells; IgG at 0.05 µg/mL in HBD. (In general: An ELISA detects its analyte on a solid surface through an enzyme-linked reagent.)
Assay [5] deals with full length human TSHR with mutation Arg255 Asp (human) (UniProt P16473). Briefly: TSHR260-AP bridge ELISA, Arg255 Asp TSHR on wells; IgG at 0.05 µg/mL in HBD.
For assay [6], the target named is thyroid stimulating hormone receptor (TSHR), full length, coated on tubes (human) (UniProt P16473). Put plainly: inhibition of 125I-TSH binding, TSHR coated tubes; antibody 10 µg/mL in assay buffer.
For assay [7] the target is unchanged. Briefly: inhibition of 125I-TSH binding, TSHR coated tubes; antibody 10 µg/mL in HBD serum pool.
For assay [8], the target named is full length wild type human TSHR (human) (UniProt P16473). Put plainly: TSHR260-AP bridge ELISA, wild type TSHR on wells; IgG at 0.01 µg/mL in HBD.
In assay [9] the target is TSH receptor (TSHR), full length human, coated on tubes (human) (UniProt P16473). Put plainly: inhibition of 125I-TSH binding to TSHR coated tubes; 1 µg/mL, diluted in HBD serum pool.
The target in assay [10] is thyroid stimulating hormone receptor (TSHR), full length human TSHR (human) (UniProt P16473). Put plainly: TSH-biotin competition ELISA, TSHR coated wells; 10 µg/mL in assay buffer.
Assay [11] deals with TSH receptor (TSHR), full length human, coated on tubes (human) (UniProt P16473). Put plainly: inhibition of 125I-TSH binding to TSHR coated tubes; 0.1 µg/mL, diluted in HBD serum pool.
The target in assay [12] is human thyroid stimulating hormone receptor (TSHR), full length (human) (UniProt P16473). Briefly: 125I-K1-70 Fab (competitor) binding to TSHR coated tubes; test sample 0.01 µg/mL in assay buffer.
Assay [13] deals with full length wild type human TSHR (human) (UniProt P16473). Briefly: TSHR260-AP bridge ELISA, wild type TSHR on wells; IgG at 0.005 µg/mL in HBD.
In assay [14] the target is human thyroid stimulating hormone receptor (TSHR), full length (human) (UniProt P16473). Put plainly: 125I-K1-70 Fab (competitor) binding to TSHR coated tubes; test sample 100 µg/mL in assay buffer.

As for 9D33 IgG (antibody), the Inhibition of binding (%) in assay [1] turned out to be 67.4%; in assay [2] it was 47.7%; in [3], 29.7%; in assay [6], 58.7%; in [7], 60.5%; in [9], 50.8%. Besides, the Inhibition of binding (%) in [10] is 84.8%; in [11] it was 30.5%; in [12] it was 5%; in assay [14], 62.7%. The Mean absorbance at 405 nm (absorbance at 405 nm) was determined as 0.056 in assay [4], 0.02 in assay [5], 0.011 in assay [8] and 0.006 in assay [13].

The values are drawn from US20110300138A1 (published 2011).
